# B1: SGN-LIV1A (conjugate, chains of the INN, looked up)
# VH: QVQLVQSGAEVKKPGASVKVSCKASGLTIEDYYMHWVRQAPGQGLEWMGWIDPENGDTEYGPKFQGRVTMTRDTSINTAYMELSRLRSDDTAVYYCAVHNAHYGTWFAYWGQGTLVTVSS
# VL: DVVMTQSPLSLPVTLGQPASISCRSSQSLLHSSGNTYLEWYQQRPGQSPRPLIYKISTRFSGVPDRFSGSGSGTDFTLKISRVEAEDVGVYYCFQGSHVPYTFGGGTKVEIK
# modifications: vedotin (MMAE) payload
# Assays:
# MCF7 cells [1] = experiment: HMGB1 release from MCF7 cells; format: cell-based
# Procedure: Induction of ICD is also characterized by the secretion of ATP and HMGB1. Extracellular ATP serves as a strong chemotactic signal, promoting immune cell migration to the tumor site. Upon arrival, extracellular HMGB1 signals through various pro-inflammatory receptors (TLR2, TLR4, RAGE) to activate antigen-presenting cells, thereby promoting immune activity within the tumor.
# (§1) MCF7 cells were treated with MMAE or an MMAE-containing ADC (SGN-LIV1A) for 16 hours and harvested in […] for western bot analysis. […] Induction of ICD is also characterized by the secretion of ATP and HMGB1. Extracellular ATP serves as a strong chemotactic signal, promoting immune cell migration to the tumor site. Upon arrival, extracellular HMGB1 signals through various pro-inflammatory receptors (TLR2, TLR4, RAGE) to activate antigen-presenting cells, thereby promoting immune activity within the tumor.
# [2] = tested on: MCF7 cells subcutaneously engrafted; experiment: Immune cell composition of MCF7 tumors by flow cytometry; format: in vivo; conditions: SOD mice with MCF7 tumors, single intraperitoneal dose, 8 days post-ADC treatment
# Text: […] were subcutaneously engrafted with MCF7 cells. Upon reaching 200 cubic millimeters, mice received a single intraperitoneal dose of an MMAE-containing ADC (SGN-LIV1A or anti-CD71-MMAE). 8 days post-ADC treatment, tumors were excised and assessed for immune cell composition by flow cytometry.
# MCF7 cells [3] = experiment: ATP secretion from MCF7 cells; format: cell-based
# MCF7 breast cancer cells = experiment: Western blot analysis of ER stress response in MCF7 cells; format: cell-based; conditions: FIG. 16A
# Procedure: MCF7 breast cancer cells were treated with 100 nM MMAE for 16 hours and harvested RIPA buffer for western blot analysis.
# as §1
# [4] = tested on: PC-3 cells subcutaneously engrafted; experiment: Immune cell infiltration of PC-3 tumors by flow cytometry; format: in vivo, athymic nude mice; conditions: single intraperitoneal dose, 8 days post-ADC treatment
# Text: Athymic nude mice were subcutaneously engrafted with PC-3 cells. Upon reaching 200 cubic millimeters, mice received a single intraperitoneal dose of an MMAE-containing ADC (SGN-LIV1A or anti-CD71-MMAE). 8 days post-ADC treatment, tumors were excised and assessed for immune cell infiltration and composition by flow cytometry.
# [5] = tested on: PC-3 cells subcutaneously engrafted; experiment: Cytokine/chemokine production in PC-3 tumor-bearing mice by ELISA; format: in vivo, athymic nude mice; conditions: PC-3 tumors, single intraperitoneal dose, 8 days post-ADC treatment
# Procedure: In another study, athymic nude mice were subcutaneously engrafted with PC-3 cells. Upon reaching 200 cubic millimeters, mice received a single intraperitoneal dose of an MMAE-containing ADC (SGN-LIV1A or anti-CD71-MMAE). 8 days post-ADC treatment, tumors were excised and homogenized in RIPA buffer and cytokine/chemokine production was measured by ELISA. Peripheral cytokine levels were also measured in the serum by ELISA.
molecule,measurement,setting,value
B1,Secretion of HMGB1,MCF7 cells [1],increased secretion
same,Immune activation by tumor-infiltrating immune cells,[2],increased level of immune activation by tumor-infiltrating immune cells
same,Secretion of ATP,MCF7 cells [3],increased secretion
same,ATP secretion,MCF7 cells [3]; after 48 hours of treatment,Increased AIR secretion
same,Severe ER stress (phosphorylation of IRE1 and JNK),MCF7 breast cancer cells,elicits severe ER stress (phosphorylation of IRE1 and JNK)
same,Activation of tumor-infiltrating immune cells,[4],enhanced activation
same,Infiltration of immune cells into tumors,[4],increased infiltration of immune cells
same,Cytokine and chemokine production (intratumoral and serum),[5],elevated cytokine and chemokine production
